{"source": "paper PMC3742443", "about": "“A Bacteriophage Tailspike Domain Promotes Self-Cleavage of a Human Membrane-Bound Transcription Factor, the Myelin Regulatory Factor MYRF” (PLoS Biology, 2013)", "target": "the molecule itself", "test": "SEC; Superdex 200 10/300 GL; protein dialysed in 20 mM HEPES pH 7.5, 50 mM NaCl, 10 mM β-mercaptoethanol, 10% glycerol, about 2 mg/ml; size by comparison with a standard curve"}
{"protein": "StrepII-MYRF-319:577, the N-terminal fragment from the auto-processing of StrepII-MYRF-319:708-10xHis (domain or fragment, human, UniProt Q9Y2G1-2 319-577, looked up, Myelin regulatory factor MYRF (C11orf9), human, 1111-amino-acid-long isoform; numbers count on: the 1111-amino-acid isoform (NP_037411); Cloned in pET52b between BamHI and SacI; The C-terminal 10xHis stays on the other cleavage product; also called N-terminal fragment of MYRF-319:708; source: E. coli BL21 Star (DE3) pLysS, cut product of StrepII-MYRF-319:708-10xHis, purified (Ni-NTA flow-through, …)) PSPGLLQDSDSLSGSYLDPNYQSIKWQPHQQNKWATLYDANYKELPMLTYRVDADKGFNFSVGDDAFVCQKKNHFQVTVYIGMLGEPKYVKTPEGLKPLDCFYLKLHGVKLEALNQSINIEQSQSDRSKRPFNPVTVNLPPEQVTKVTVGRLHFSETTANNMRKKGKPNPDQRYFMLVVALQAHAQNQNYTLAAQISERIIVRASNPGQFESDSDVLWQRAQVPDTVFHHGRVGINTDRPDEALVVHGNVKVMGSLMHP", "values": [{"measurement": "stoichiometry N", "result": 3}]}
